The target in data set [1] is T1, hexYme1p (S. cerevisiae) (UniProt P32795).
T1 sequence: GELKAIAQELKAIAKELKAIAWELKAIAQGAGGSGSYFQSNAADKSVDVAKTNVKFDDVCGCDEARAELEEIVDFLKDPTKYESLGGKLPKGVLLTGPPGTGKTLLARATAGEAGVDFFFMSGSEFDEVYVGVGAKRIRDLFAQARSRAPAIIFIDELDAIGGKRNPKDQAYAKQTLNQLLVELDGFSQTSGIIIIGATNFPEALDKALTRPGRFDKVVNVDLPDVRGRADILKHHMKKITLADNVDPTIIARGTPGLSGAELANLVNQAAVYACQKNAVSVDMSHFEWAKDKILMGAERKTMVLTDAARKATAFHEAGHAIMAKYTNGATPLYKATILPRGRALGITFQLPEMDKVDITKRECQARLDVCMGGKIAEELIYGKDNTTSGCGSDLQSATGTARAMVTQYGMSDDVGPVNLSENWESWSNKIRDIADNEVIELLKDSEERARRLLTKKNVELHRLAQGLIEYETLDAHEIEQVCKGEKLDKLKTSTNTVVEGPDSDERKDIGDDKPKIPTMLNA

Data set [2] deals with T1, hexYme1p (S. cerevisiae). This is another data set of the same source.
The data set “SEC” deals with the molecule itself. As to the kind of experiment: SEC. (In general: Size exclusion chromatography separates by hydrodynamic size, large species first.)

Changes are numbered by the printed parent chain. In names and notes the source's numbering stands. Like-named read-outs stand apart in the source and are kept apart here.

T13-λcI^N (from UniProt P53299 1-13) yielded an initial rate of degradation of 20 μM substrate by hexYme1p (min^−1 enz6^−1) with hexYme1p (S. cerevisiae) [1] of 0.22.
The same measure, in the same setting: with T9-λcI^N (from UniProt O74700 1-8) the figure was 0.03; with T10-λcI^N (from UniProt P87108 1-15), 0.7.
The same measure, in the same setting: under T12-λcI^N (from UniProt P32830 1-15) stands 0.33.

B1: Tim13^3–7A (natural protein)
chain: MGAAAAAGGGAPSQQKEAATTAKTTPNPIAKELKNQIAQELAVANATELVNKISENCFEKCLTSPYATRNDACIDQCLAKYMRSWNVISKAYISRIQNASASGEI
Regarding B1, in the data set with hexYme1p (S. cerevisiae) [1], the initial rate of degradation by hexYme1p, without DTT (min^−1 enz6^−1) is 0.05.

B2: Tim10^2–6A (natural protein)
chain: MAAAAAGGGQPQLSSQQKIQAAEAELDLVTDMFNKLVNNCYKKCINTSYSEGELNKNESSCLDRCVAKYFETNVQVGENMQKMGQSFNAAGKF
Turning to B2, in the data set with hexYme1p (S. cerevisiae) [2], the initial rate of degradation by hexYme1p (min^−1 enz6^−1) was 0.05.

B3: Tim10^F3A/F6A (natural protein)
chain: B2 chain with A2S, A4L, A5G
For B3, the initial rate of degradation by hexYme1p (min^−1 enz6^−1) in the data set with hexYme1p (S. cerevisiae) [2] was 0.11.

B4: Tim10^F-alone (natural protein)
chain: B2 chain with A3F, A6F, G7A
In the case of B4, the initial rate of degradation by hexYme1p (min^−1 enz6^−1) with hexYme1p (S. cerevisiae) [2] was found to be 0.43.

B5: Tim9^D2F (natural protein)
chain: MFALNSKEQQEFQKVVEQKQMKDFMRLYSNLVERCFTDCVNDFTTSKLTNKEQTCIMKCSEKFLKHSERVGQRFQEQNAALGQGLGR
In the data set with hexYme1p (S. cerevisiae) [2], B5 showed an initial rate of degradation by hexYme1p, without DTT (min^−1 enz6^−1) of 0.16.

B6: hexYme1p (enzyme, S. cerevisiae)
chain: T1 sequence
Broadly, the stoichiometry N is the number of molecules, sites or subunits per partner or assembly. B6: the “stoichiometry N” value in “SEC” came to 6.
